Tests used:
Assay in all cases: Gator BLI, hTSLP mutant from CHO cells against 3H10-biotin
hTSLP-D18A (human) = hTSLP-D18A (human) (UniProt Q969D9)
hTSLP-E20A (human) = hTSLP-E20A (human) (UniProt Q969D9)
hTSLP-K135A (human) = hTSLP-K135A (human) (UniProt Q969D9)
hTSLP-K21A (human) = hTSLP-K21A (human) (UniProt Q969D9)
hTSLP-K23A (human) = hTSLP-K23A (human) (UniProt Q969D9)
hTSLP-K32A (human) = hTSLP-K32A (human) (UniProt Q969D9)
hTSLP-L133A (human) = hTSLP-L133A (human) (UniProt Q969D9)
hTSLP-L27A (human) = hTSLP-L27A (human) (UniProt Q969D9)
hTSLP-N130A (human) = hTSLP-N130A (human) (UniProt Q969D9)
hTSLP-R127A (human) = hTSLP-R127A (human) (UniProt Q969D9)
hTSLP-R131A (human) = hTSLP-R131A (human) (UniProt Q969D9)
hTSLP-R55A (human) = hTSLP-R55A (human) (UniProt Q969D9)
hTSLP-S28A (human) = hTSLP-S28A (human) (UniProt Q969D9)
hTSLP-S43A (human) = hTSLP-S43A (human) (UniProt Q969D9)
Chain of hTSLP-S43A (human) (Q969D9 29-159 R127A/R130A): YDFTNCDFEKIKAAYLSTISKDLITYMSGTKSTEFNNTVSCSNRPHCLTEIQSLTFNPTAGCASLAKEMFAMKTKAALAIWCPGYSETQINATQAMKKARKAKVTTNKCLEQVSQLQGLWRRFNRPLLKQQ

Chain of hTSLP-L27A (human) (Q969D9 29-159 R127A/R130A): as above
Chain of hTSLP-R55A (human) (Q969D9 29-159 R127A/R130A): as above
Chain of hTSLP-K21A (human) (Q969D9 29-159 R127A/R130A): as above
Chain of hTSLP-K23A (human) (Q969D9 29-159 R127A/R130A): as above
Chain of hTSLP-N130A (human) (Q969D9 29-159 R127A/R130A): as above
Chain of hTSLP-K32A (human) (Q969D9 29-159 R127A/R130A): as above
Chain of hTSLP-L133A (human) (Q969D9 29-159 R127A/R130A): as above
Chain of hTSLP-K135A (human) (Q969D9 29-159 R127A/R130A): as above
Chain of hTSLP-S28A (human) (Q969D9 29-159 R127A/R130A): as above
Chain of hTSLP-R127A (human) (Q969D9 29-159 R127A/R130A): as above
Chain of hTSLP-E20A (human) (Q969D9 29-159 R127A/R130A): as above
Chain of hTSLP-D18A (human) (Q969D9 29-159 R127A/R130A): as above
Chain of hTSLP-R131A (human) (Q969D9 29-159 R127A/R130A): as above

B1: 3H10-biotin protein (designed binder)
chain: GSHMDLGKKLLEAAWAGRDDEVRILMANGADVNAGDASGDTPLHLAAFSGHLEIVEVLLKHGADVNAEDLLGMTPLHLAAPFGHLEIVEVLLKHGADVNAAARNNGKTPLHLAAFVGHLEIVEVLLKNGADVNAQDKFGKTAFDISIDNGNEDLAEILQKLNG
modifications: biotin (site not stated)
Decreased fold in binding affinity compared to wild-type TSLP (hTSLP-D18A (human)): 7.9 fold
Decreased fold in binding affinity compared to wild-type TSLP (hTSLP-E20A (human)): 6.1 fold
Decreased fold in binding affinity compared to wild-type TSLP (hTSLP-K135A (human)): 1.7 fold
Decreased fold in binding affinity compared to wild-type TSLP (hTSLP-K21A (human)): 11.9 fold
Decreased fold in binding affinity compared to wild-type TSLP (hTSLP-K23A (human)): 2.4 fold
Decreased fold in binding affinity compared to wild-type TSLP (hTSLP-K32A (human)): 1.2 fold
Decreased fold in binding affinity compared to wild-type TSLP (hTSLP-L133A (human)): 2.05 fold
Decreased fold in binding affinity compared to wild-type TSLP (hTSLP-L27A (human)): 9.3 fold
Decreased fold in binding affinity compared to wild-type TSLP (hTSLP-N130A (human)): 2.2 fold
Decreased fold in binding affinity compared to wild-type TSLP (hTSLP-R127A (human)): 1.8 fold
Decreased fold in binding affinity compared to wild-type TSLP (hTSLP-R131A (human)): 2.1 fold
Decreased fold in binding affinity compared to wild-type TSLP (hTSLP-R55A (human)): 0.5 fold
Decreased fold in binding affinity compared to wild-type TSLP (hTSLP-S28A (human)): 5.1 fold
Decreased fold in binding affinity compared to wild-type TSLP (hTSLP-S43A (human)): 5 fold

— patent US20250376501A1
